Reference: PMC9400078

What was measured:
[1] = biological target: CelTOS N-terminal truncation mutant (Gly51–Asp196) (Plasmodium vivax); assay: SEC
[2] = biological target: CelTOS double mutant Lys122Asp, Leu164Asp (Plasmodium vivax); assay: SEC

Row | Substance | stoichiometry N [1] | stoichiometry N [2]
1 | CelTOS N-terminal truncation mutant (Gly51–Asp196) (domain or fragment) | 2 | –
2 | CelTOS double mutant Lys122Asp, Leu164Asp (natural protein) | – | 2
